Reference: paper PMC12164381 (mAbs, 2025)
Substitutions are numbered along the chain they refer to. Like-named read-outs stand apart in the source and are kept apart here.

B1: BD55–5840 (antibody, V domains shown)
VH: VQLAQSGSELRKPGASVKVSCDTSGHSFTSNAIHWVRQAPGQGLEWMGWINTDTGTPTYAQGFTGRFVFSLDTSARTAYLQISSLKADDTAVFYCARERDYSDYFFDYWGQGTLVTVSS
VL: EVVMTQSPASLSVSPGERATLSCRARASLGISTDLAWYQQRPGQAPRLLIYGASTRATGIPARFSGSGSGTEFTLTISSLQSEDSAVYYCQQYSNWPLTFGGGTKVEIK
B2: LY-CoV1404 (antibody, V domains shown)
VH: QITLKESGPTLVKPTQTLTLTCTFSGFSLSISGVGVGWLRQPPGKALEWLALIYWDDDKRYSPSLKSRLTISKDTSKNQVVLKMTNIDPVDTATYYCAHHSISTIFDHWGQGTLVTVSS
VL: QSALTQPASVSGSPGQSITISCTATSSDVGDYNYVSWYQQHPGKAPKLMIFEVSDRPSGISNRFSGSKSGNTASLTISGLQAEDEADYYCSSYTTSSAVFGGGTKLTVL
B3: Inverse folding design from the DXP-604 starting point (Table 5, design row 1, the 5th table, row 4) (antibody, V domains shown)
VH: EVQLVESGGGLIQPGGSLRLSCAASGIIVSRNYMTWVRQAPGKGLEWVSVIYSGGSTFYADSVKGRFTISRDNSKNTLYLQMSSLRAEDTAVYYCARDLGPYGMDVWGQGTTVTVSS
VL: DIQLTQSPSFLSASVGDRVTITCRASQGISSDLAWYQQKPGKAPNLLIYAASTLQSGVPSRFSGSGSGTEFTLTISSLQPEDFATYYCQQLMDTLYTFGQGTKLEIK
B4: Inverse folding design from the DXP-604 starting point (Table 5, design row 2, the 5th table, row 5) (antibody, V domains shown)
VH: B3 VH with S56T, G100A, P101V
VL: B3 VL with S30G, M92N, D93S, T94D
B5: Inverse folding design from the DXP-604 starting point (Table 5, design row 3, the 5th table, row 6) (antibody, V domains shown)
VH: B3 VH
VL: B3 VL with M92N, T94L
B6: REGN10987 (antibody, V domains shown)
VH: QVQLVESGGGVVQPGRSLRLSCAASGFTFSNYAMYWVRQAPGKGLEWVAVISYDGSNKYYADSVKGRFTISRDNSKNTLYLQMNSLRTEDTAVYYCASGSDYGDYLLVYWGQGTLVTVSS
VL: QSALTQPASVSGSPGQSITISCTGTSSDVGGYNYVSWYQQHPGKAPKLMIYDVSKRPSGVSNRFSGSKSGNTASLTISGLQSEDEADYYCNSLTSISTWVFGGGTKLTVL
B7: Inverse folding design from the DXP-604 starting point (Table 5, design row 4, the 5th table, row 7) (antibody, V domains shown)
VH: B3 VH with S56T
VL: B3 VL with S30G, M92N, D93S, T94D
B8: Inverse folding design from the DXP-604 starting point (Table 5, design row 5, the 5th table, row 8) (antibody, V domains shown)
VH: B3 VH with S53P, P101V
VL: B3 VL with M92N, T94Y
B9: Inverse folding design from the DXP-604 starting point (Table 5, design row 6, the 5th table, row 9) (antibody, V domains shown)
VH: B3 VH
VL: B3 VL with S30G, M92N, D93S, T94D
B10: S2K146 (antibody, V domains shown)
VH: QVQLVESGGVVVQPGGSLRLSCAASGFTFHDHTMHWVRQAPGKGLEWVSLITWNGGTIHYSDSVKGRFTISRDNSKNSLYLQMNSLRTEDTALYYCAKDLGRGGWYLPSDAWGQGTLVTVSS
VL: not shown
B11: Inverse folding design from the DXP-604 starting point (Table 5, design row 7, the 5th table, row 10) (antibody, V domains shown)
VH: B3 VH
VL: B3 VL with M92N, D93S, T94D
B12: Inverse folding design from the LY-CoV1404 starting point (Table 5, design row 1, the 5th table, row 12) (antibody, V domains shown)
VH: B2 VH with I31T
VL: B2 VL with D31N, T95S, A98V
B13: Inverse folding design from the LY-CoV1404 starting point (Table 5, design row 2, the 5th table, row 13) (antibody, V domains shown)
VH: B2 VH
VL: B2 VL with D31I, S97A

How the values were obtained:
Assay in all cases: SPR
[1] = biological target: T1, SARS-CoV-2 Spike RBD, original (Wuhan) strain (SARS-CoV-2, original Wuhan strain, UniProt P0DTC2)
[2] = biological target: T1, SARS-CoV-2 Spike RBD, original (Wuhan) …; remark: listed apart in the source
[3] = biological target: SARS-CoV-2 Spike RBD, XBB.1.5 strain (SARS-CoV-2, Omicron XBB.1.5, strain)

Binder | pKD [1] | pKD [2] | pKD [3]
B1 | 10.1 -log10(KD) | – | –
B2 | 9.01 -log10(KD) | – | –
B3 | – | 10 -log10(KD) | 6.33 -log10(KD)
B4 | – | 10.2 -log10(KD) | 6.15 -log10(KD)
B5 | – | 9.38 -log10(KD) | 6.01 -log10(KD)
B6 | 7.84 -log10(KD) | – | –
B7 | – | 9.53 -log10(KD) | 6.35 -log10(KD)
B8 | – | 10.8 -log10(KD) | 6.33 -log10(KD)
B9 | – | 10 -log10(KD) | 6.28 -log10(KD)
B10 | 10.3 -log10(KD) | – | –
B11 | – | 10.6 -log10(KD) | 6.07 -log10(KD)
B12 | – | 9.57 -log10(KD) | –
B13 | – | 9.48 -log10(KD) | –
